Bridge positions count the residues as written; N and C are the ends. Square brackets hold non-standard residues; d marks the D form. DBF = dibenzofuran moiety used in place of Pro-Pro
How the values were obtained:
[1] = molecular target: T1, CD58 expressed on OVCAR-3 and HFLS-RA cells (human, UniProt P19256 29-250); test: cell-based or functional assay
T1 sequence (looked up): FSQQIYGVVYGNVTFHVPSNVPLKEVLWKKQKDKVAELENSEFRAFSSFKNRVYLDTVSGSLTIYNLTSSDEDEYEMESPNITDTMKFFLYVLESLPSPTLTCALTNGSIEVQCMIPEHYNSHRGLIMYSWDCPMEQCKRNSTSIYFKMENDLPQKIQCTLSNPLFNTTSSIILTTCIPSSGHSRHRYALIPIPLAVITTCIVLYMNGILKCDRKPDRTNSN

[2] = molecular target: CD58 expressed on sheep red blood cells (SRBC) (sheep); test: cell-based or functional assay

B1: SFTI-a1 (peptide)
peptide: cyclo(CKSAPPSCAYDGDD)
modifications: disulfide 1-8
SMILES: C[C@@H]1NC(=O)[C@@H]2CSSC[C@H](NC(=O)[C@H](CC(=O)O)NC(=O)[C@H](CC(=O)O)NC(=O)CNC(=O)[C@H](CC(=O)O)NC(=O)[C@H](Cc3ccc(O)cc3)NC1=O)C(=O)N[C@@H](CCCCN)C(=O)N[C@@H](CO)C(=O)N[C@@H](C)C(=O)N1CCC[C@H]1C(=O)N1CCC[C@H]1C(=O)N[C@@H](CO)C(=O)N2
With B1 the “IC50, cell adhesion inhibition” value [1] was 22 nM.

B2: SFTI-a (peptide)
peptide: cyclo(CKASAPPSCYDGDD)
modifications: disulfide 1-9
SMILES: C[C@@H]1NC(=O)[C@H](CCCCN)NC(=O)[C@@H]2CSSC[C@H](NC(=O)[C@H](CO)NC(=O)[C@@H]3CCCN3C(=O)[C@@H]3CCCN3C(=O)[C@H](C)NC(=O)[C@H](CO)NC1=O)C(=O)N[C@@H](Cc1ccc(O)cc1)C(=O)N[C@@H](CC(=O)O)C(=O)NCC(=O)N[C@@H](CC(=O)O)C(=O)N[C@@H](CC(=O)O)C(=O)N2
B2 was tested, and the “IC50, cell adhesion (PPI) inhibition” value [1] was 51 nM.

In the case of cyclo(SIYD[dP]PDDIK) [Peptide 6], the “IC50, inhibition of E-rosette formation” value [2] is reported as 9.4 nM.

For cyclo(CKSA[DBF]SCAYDGDD) (disulfide 1-7 (inferred)) [SFTI-DBF], the “IC50, inhibition of adhesion between Jurkat and HFLS-RA cells” value [1] was 3 nM and the “IC50, inhibition of adhesion between Jurkat and OVCAR-3 cells” value [1] was 0.61 nM.

From US20200347136A1 (published 2020)
